± gives the uncertainty stated by the source.
Test: self-splicing fitness, log relative to wild type (ln ratio); higher = more splicing; Tetrahymena group I intron in knt gene, E. coli kanamycin selection, DiMSum; sequences stand for … in CUCUCU…GGAGGGAAAAGUUAUCAGGCAUGCACCUGGUAGCUAGUCUUUAAACCAAUAGAUUGCAUCGGUUUAAAAGGCAAGACCGUCAAAUUGCGGGAAAGGGGUCAACAGCCGUUCAGUACCAAGUCUCAGGGGAAACUUUGAGAUGGCCUUGCAAAGGGUAUGGUAAUAAGCUGACGGACAUGGUCCUAACCACGCAGCCAAGUCCUAAGUCAACAGAUCUUCUGUUGAUAUGGAUGCAGUUCACAGACUAAAUGUCGGUCGGGGAAGAUGUAUUCUUCUCAUAAGAUAUAGUCGGACCUCUCCUUAAUGGGAGCUAGCGGAUGAAGUGAUGCAACACUGGAGCCGCUGGGAACUAAUUUGUAUGCGAAAGUAUAUUGAUUAGUUUUGGAGUACUCGUGGUCG
Method in brief: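 Pooled colonies went to amplicon sequencing on an Illumina HiSeq 2500 after six replicate transformations. The plates were LB agar with 100 μg/mL carbenicillin, 50 μM IPTG and 0.2% rhamnose, with or without 25 μg/mL kanamycin, incubated overnight at 37°C or 30°C. The E. coli BL21(DE3) library had all eight P1ex-region intron nucleotides randomised, the intron placed in the knt kanamycin-resistance gene on pET-22b(+). DiMSum fitness is the error-weighted combination of replicate fold changes, kanamycin against none, normalised to wild type.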

| Sequence | self-splicing fitness (ln) (30 °C) | self-splicing fitness (ln) (37 °C) |
| --- | --- | --- |
| UCUCAGCAAUAUUACGCGAU | -4.5 ± 0.34 | -2.1 ± 0.36 |
| UCUCAGCAAUAUUACGCGGA | -2.54 ± 0.37 | -2.46 ± 0.29 |
| UCUCAGCAAUAUUACGGAGG | -4.93 ± 0.29 | -1.97 ± 0.17 |
| UCUCAGCAAUAUUACGGCGU | -0.533 ± 0.087 | -0.636 ± 0.12 |
| UCUCAGCAAUAUUACGUAGG | -0.566 ± 0.053 | -0.133 ± 0.1 |
| UCUCAGCAAUAUUACGUCAG | -3.54 ± 0.25 | -3.16 ± 0.27 |
| UCUGAGCAAUAUUACGAAAU | -4.41 ± 0.46 | -2.24 ± 0.4 |
| UCUGAGCAAUAUUACGAAGA | -1.67 ± 0.21 | -0.838 ± 0.27 |
| UCUGAGCAAUAUUACGAUGU | -2.72 ± 0.15 | -0.718 ± 0.16 |
| UCUGAGCAAUAUUACGAUUG | -2.97 ± 0.27 | -2.39 ± 0.33 |
| UCUGAGCAAUAUUACGCACU | -4.18 ± 0.39 | -2.1 ± 0.28 |
| UCUGAGCAAUAUUACGCGAC | – | -2.85 ± 0.48 |
| UCUGAGCAAUAUUACGCGCG | – | -1.69 ± 0.46 |
| UCUGAGCAAUAUUACGCGUC | – | -2.49 ± 0.48 |
| UCUGAGCAAUAUUACGCUUA | -2.24 ± 0.26 | -2.38 ± 0.45 |
| UCUGAGCAAUAUUACGGGCA | -3.41 ± 0.33 | -2.49 ± 0.16 |
| UCUGAGCAAUAUUACGGGGG | -3.29 ± 0.36 | -2.49 ± 0.25 |
| UCUGAGCAAUAUUACGGUAG | -3.93 ± 0.33 | -1.67 ± 0.18 |
| UCUGAGCAAUAUUACGGUGG | -1.29 ± 0.084 | -0.277 ± 0.1 |
| UCUGAGCAAUAUUACGUCCA | -2.33 ± 0.3 | -1.68 ± 0.38 |
| UCUUAGCAAUAUUACGAACG | -0.815 ± 0.15 | -1 ± 0.2 |
| UCUUAGCAAUAUUACGAGCU | -3.09 ± 0.34 | -1.01 ± 0.26 |
| UCUUAGCAAUAUUACGAUCA | -1.3 ± 0.22 | -1.15 ± 0.23 |
| UCUUAGCAAUAUUACGCAUU | -4.23 ± 0.19 | -2.47 ± 0.16 |
| UCUUAGCAAUAUUACGCGCC | -3.51 ± 0.22 | -2.42 ± 0.22 |

| Sequence | self-splicing fitness (ln) (30 °C) | self-splicing fitness (ln) (37 °C) |
| --- | --- | --- |
| UCUUAGCAAUAUUACGCGCG | -3.05 ± 0.25 | -1.76 ± 0.17 |
| UCUUAGCAAUAUUACGCGGA | – | -2.03 ± 0.41 |
| UCUUAGCAAUAUUACGCGGG | -2.21 ± 0.22 | -2.5 ± 0.34 |
| UCUUAGCAAUAUUACGCUAA | -2.71 ± 0.35 | – |
| UCUUAGCAAUAUUACGCUGU | -3.65 ± 0.37 | -1.45 ± 0.26 |
| UCUUAGCAAUAUUACGGAUC | – | -1.69 ± 0.36 |
| UCUUAGCAAUAUUACGGGUC | -3.28 ± 0.32 | -2.68 ± 0.41 |
| UCUUAGCAAUAUUACGGUGC | -3.26 ± 0.33 | -1.9 ± 0.33 |
| UCUUAGCAAUAUUACGUCAU | -1.86 ± 0.32 | – |
| UCUUAGCAAUAUUACGUGAU | -2.43 ± 0.28 | -2.01 ± 0.38 |
| UCUUAGCAAUAUUACGUGUG | -2.13 ± 0.13 | -0.484 ± 0.099 |
| UGAAAGCAAUAUUACGAACA | -0.213 ± 0.064 | 0.349 ± 0.08 |
| UGAAAGCAAUAUUACGACAA | 0.219 ± 0.1 | -0.111 ± 0.13 |
| UGAAAGCAAUAUUACGACGG | -0.788 ± 0.1 | -0.64 ± 0.1 |
| UGAAAGCAAUAUUACGAGAG | -4.15 ± 0.33 | -1.61 ± 0.14 |
| UGAAAGCAAUAUUACGAUCC | -0.303 ± 0.14 | 0.92 ± 0.18 |
| UGAAAGCAAUAUUACGCCAA | -1.13 ± 0.15 | -0.806 ± 0.18 |
| UGAAAGCAAUAUUACGCUGG | -2.59 ± 0.16 | -1.27 ± 0.19 |
| UGAAAGCAAUAUUACGGAAU | -3.12 ± 0.18 | -0.0346 ± 0.15 |
| UGAAAGCAAUAUUACGGACG | -0.186 ± 0.084 | 0.54 ± 0.12 |
| UGAAAGCAAUAUUACGGAGU | -3.82 ± 0.28 | -2.84 ± 0.19 |
| UGAAAGCAAUAUUACGGAUA | -1.56 ± 0.13 | -1.1 ± 0.14 |
| UGAAAGCAAUAUUACGGCCU | -0.0439 ± 0.16 | 0.493 ± 0.18 |
| UGAAAGCAAUAUUACGGCGC | -1.78 ± 0.21 | -0.486 ± 0.23 |
| UGAAAGCAAUAUUACGGCGG | -1.03 ± 0.085 | -0.221 ± 0.14 |

| Sequence | self-splicing fitness (ln) (30 °C) | self-splicing fitness (ln) (37 °C) |
| --- | --- | --- |
| UGAAAGCAAUAUUACGGCUU | -1.62 ± 0.13 | -1.81 ± 0.2 |
| UGAAAGCAAUAUUACGGGCU | -2.04 ± 0.16 | -1.97 ± 0.27 |
| UGAAAGCAAUAUUACGGGGA | -1.92 ± 0.21 | -0.977 ± 0.19 |
| UGAAAGCAAUAUUACGGUCA | -0.166 ± 0.077 | 0.339 ± 0.1 |
| UGAAAGCAAUAUUACGUCCU | -0.649 ± 0.091 | -0.195 ± 0.081 |
| UGAAAGCAAUAUUACGUCGG | -1.12 ± 0.065 | -0.446 ± 0.082 |
| UGAAAGCAAUAUUACGUGUC | -0.712 ± 0.15 | -2.32 ± 0.21 |
| UGACAGCAAUAUUACGAAAA | -2.4 ± 0.35 | -1.29 ± 0.19 |
| UGACAGCAAUAUUACGAAUG | -0.535 ± 0.086 | -0.604 ± 0.1 |
| UGACAGCAAUAUUACGACAG | -0.934 ± 0.065 | 0.0335 ± 0.084 |
| UGACAGCAAUAUUACGACGU | -1.48 ± 0.099 | -0.473 ± 0.13 |
| UGACAGCAAUAUUACGAGAG | -3.08 ± 0.14 | -1.75 ± 0.11 |
| UGACAGCAAUAUUACGAGUA | -2.37 ± 0.17 | -0.712 ± 0.11 |
| UGACAGCAAUAUUACGAGUC | -3.94 ± 0.23 | -3.33 ± 0.32 |
| UGACAGCAAUAUUACGCAUG | -1.03 ± 0.055 | -0.328 ± 0.061 |
| UGACAGCAAUAUUACGCGAA | -1.32 ± 0.12 | -0.476 ± 0.14 |
| UGACAGCAAUAUUACGGAGA | -3.83 ± 0.29 | -1.98 ± 0.15 |
| UGACAGCAAUAUUACGGGGG | -2.61 ± 0.19 | -2.93 ± 0.2 |
| UGACAGCAAUAUUACGGUGA | -0.731 ± 0.052 | 0.000318 ± 0.071 |
| UGACAGCAAUAUUACGUAGU | -3 ± 0.17 | -1.22 ± 0.14 |
| UGACAGCAAUAUUACGUCAG | -2.12 ± 0.096 | -1.75 ± 0.11 |
| UGACAGCAAUAUUACGUCCU | -0.124 ± 0.076 | 0.379 ± 0.099 |
| UGACAGCAAUAUUACGUCUA | -0.75 ± 0.09 | -0.464 ± 0.098 |
| UGACAGCAAUAUUACGUGCC | -1.3 ± 0.12 | -1.58 ± 0.15 |
| UGACAGCAAUAUUACGUGUC | -3.44 ± 0.16 | -2.98 ± 0.16 |

| Sequence | self-splicing fitness (ln) (30 °C) | self-splicing fitness (ln) (37 °C) |
| --- | --- | --- |
| UGACAGCAAUAUUACGUUGC | -3.03 ± 0.2 | -2.89 ± 0.23 |
| UGAGAGCAAUAUUACGAAAU | -2.66 ± 0.22 | -1.75 ± 0.32 |
| UGAGAGCAAUAUUACGACGC | -1.61 ± 0.35 | – |
| UGAGAGCAAUAUUACGAUCU | -2.49 ± 0.45 | -1.1 ± 0.45 |
| UGAGAGCAAUAUUACGAUGU | -3.27 ± 0.25 | – |
| UGAGAGCAAUAUUACGCAAC | – | -1.88 ± 0.47 |
| UGAGAGCAAUAUUACGCAAU | – | -3 ± 0.43 |
| UGAGAGCAAUAUUACGCACG | -2.77 ± 0.19 | -0.671 ± 0.2 |
| UGAGAGCAAUAUUACGCAGA | -3.1 ± 0.34 | – |
| UGAGAGCAAUAUUACGCGAA | -4.25 ± 0.4 | -1.53 ± 0.28 |
| UGAGAGCAAUAUUACGCGUU | -3.23 ± 0.2 | -3.69 ± 0.34 |
| UGAGAGCAAUAUUACGGAUA | – | -2.5 ± 0.26 |
| UGAGAGCAAUAUUACGGCAA | -1.61 ± 0.33 | -1.15 ± 0.18 |
| UGAGAGCAAUAUUACGGGAG | -3.96 ± 0.29 | -1.93 ± 0.21 |
| UGAGAGCAAUAUUACGGGCG | -2.04 ± 0.21 | -0.434 ± 0.19 |
| UGAGAGCAAUAUUACGGUGC | -2.02 ± 0.21 | – |
| UGAGAGCAAUAUUACGGUGG | -3.4 ± 0.17 | -2.82 ± 0.2 |
| UGAGAGCAAUAUUACGUCCA | -1.04 ± 0.14 | -0.218 ± 0.17 |
| UGAGAGCAAUAUUACGUUGC | -2.35 ± 0.22 | -1.06 ± 0.33 |
| UGAUAGCAAUAUUACGAACA | -0.502 ± 0.18 | 0.324 ± 0.26 |
| UGAUAGCAAUAUUACGACGA | -0.476 ± 0.16 | 0.0569 ± 0.18 |
| UGAUAGCAAUAUUACGAGCC | -3.7 ± 0.47 | – |
| UGAUAGCAAUAUUACGAUAA | -2.12 ± 0.16 | -0.841 ± 0.17 |
| UGAUAGCAAUAUUACGAUGU | – | -2.04 ± 0.34 |
| UGAUAGCAAUAUUACGAUUG | -0.719 ± 0.12 | -0.301 ± 0.15 |

Source: the supplement of paper PMC7877785
